Assay results reported in patent US20230272067A1 (HUAHUI HEALTH, published 2023).
Changes are numbered by the printed parent chain. Names and notes keep the numbering of the source.

Experiments:
[1] = target: T1, extracellular domain (ECD) of human TIGIT (human, UniProt Q495A1 22-141, biotinylated (site not stated)); assay: SPR (Biacore T200), multi-cycle kinetics
T1 construct: extracellular domain; Used captured on streptavidin in ELISA and as analyte in SPR (extracellular domain); also called hTIGIT-ECD; hTIGIT-ECD-Biotin; not shown: expressed as a biotinylated recombinant fusion protein
T1 sequence (looked up): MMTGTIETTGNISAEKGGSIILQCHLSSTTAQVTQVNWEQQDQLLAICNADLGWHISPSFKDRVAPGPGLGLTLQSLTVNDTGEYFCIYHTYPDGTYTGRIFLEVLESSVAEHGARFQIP

[2] = target: T2, extracellular domain (ECD) of mouse TIGIT (mouse, UniProt P86176 29-148, biotinylated (site not stated)); assay: SPR (Biacore T200), multi-cycle kinetics
T2 construct: extracellular domain; Used captured on streptavidin in ELISA and as analyte in SPR (extracellular domain); also called mTIGIT-ECD; mTIGIT-ECD-Biotin; not shown: expressed as a biotinylated recombinant fusion protein
T2 sequence (looked up): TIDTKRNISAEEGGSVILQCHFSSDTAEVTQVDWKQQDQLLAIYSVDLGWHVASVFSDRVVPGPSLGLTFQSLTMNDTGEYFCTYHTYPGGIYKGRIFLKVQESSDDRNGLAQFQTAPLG

[3] = target: T1, extracellular domain (ECD) of human …; assay: SPR (Biacore T200), multi-cycle kinetics, FIG. 11 (hTIGIT or mTIGIT)
[4] = target: T2, extracellular domain (ECD) of mouse …; assay: as above
[5] = target: T3, full-length human TIGIT expressed on cells (human, UniProt Q495A1 22-244); assay: FACS on CHO cells transiently expressing full-length hTIGIT, hIgG1 format
T3 construct: whole, on cells; also called CHO-hTIGIT; YTS-hTIGIT
T3 sequence (looked up): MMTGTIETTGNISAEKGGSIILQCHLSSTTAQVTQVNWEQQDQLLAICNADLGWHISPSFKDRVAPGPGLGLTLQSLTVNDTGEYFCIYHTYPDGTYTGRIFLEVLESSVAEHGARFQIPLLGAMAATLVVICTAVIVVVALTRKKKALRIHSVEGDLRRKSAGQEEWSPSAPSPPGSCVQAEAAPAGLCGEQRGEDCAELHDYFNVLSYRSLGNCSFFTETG
Procedure: (§1) For epitope mapping, chimeras of human TIGIT IgV domain and N-terminal IgV domain D1 of hCD155 were constructed by replacing residues in the extracellular regions of hTIGIT with the corresponding residues from hCD155 D 1. These chimera and variants were expressed by transient transfection of CHO or 293T cells, their cell surface expression levels were assessed by using a mAb GC33 recognizing the N-terminal tag fused to each of the chimera and variant or hCD155-hFc (4). The binding of testing Abs in human IgG1 (hIgG1) format or hCD155-hFc to these transfectants were detected by using goat anti-human IgG-FITC antibody (Thermo Fisher Scientific). The cells were then analyzed with FACS machine (BD Accuri™ C6).
By transfecting CHO cells with these hTIGIT/hCD155 chimeras or hTIGIT variants, and by subsequently analyzing T4, CS19ME3-23, and CS19ME3-30-N Abs binding to these CHO transfectant cells by FACS, it was identified that the FG Loop in the extracellular IgV domain of hTIGIT is critical for these Abs′ binding (FIG. 12B). […] Thus, by binding to the FG Loop, these three Abs block the binding of TIGIT to its ligand CD155. Due to the high amino acid sequence homology in this loop between hTIGIT and mTIGIT, these three Abs are able to cross-react with both of them.

[6] = target: T4, hTIGIT variant K82A (full length, on 293T cells) (human, UniProt Q495A1 22-244); assay: FACS on 293T cells transiently expressing the variant
T4 construct: whole, on cells
T4 sequence (looked up): T3 sequence (looked up) with K61A
Procedure: as §1
(§2) To investigate the role of these residues in the binding of anti-TIGIT antibodies of the present disclosure to hTIGIT, three hTIGIT variants each having a single point mutation selected from S78A, […], and K82A were generated. By transfecting 293T cells with these hTIGIT variants and by subsequently analyzing CS19ME3-30-N Abs binding to these 293T transfectant cells by FACS, it was identified that none of the three residues in the extracellular IgV domain of hTIGIT is critical for these Abs′ binding (FIG. 12C).

[7] = target: T5, hTIGIT variant S78A (full length, on 293T cells) (human, UniProt Q495A1 22-244); assay: as above
T5 construct: whole, on cells
T5 sequence (looked up): T3 sequence (looked up) with S57A
Procedure: as §1, §2

[8] = target: T6, hTIGIT variant S80A (full length, on 293T cells) (human, UniProt Q495A1 22-244); assay: as above
T6 construct: whole, on cells; also called 580A [sic]
T6 sequence (looked up): T3 sequence (looked up) with S59A
Procedure: as §1, §2

Measured: binding result

B1: T4M (antibody, V domains shown)
VH: QVQLQQWGAGLLKPSETLSLTCAVYGGSFNDYYWTWIRQAPGKGLEWIGEITHSGSADYNPSLKSRVTISVDTSKNQFSLKLRSVTAADTAVYYCARGLKLFRWKKTTVTTFPPYYYGMDVWGQGTTVTVSS
VL: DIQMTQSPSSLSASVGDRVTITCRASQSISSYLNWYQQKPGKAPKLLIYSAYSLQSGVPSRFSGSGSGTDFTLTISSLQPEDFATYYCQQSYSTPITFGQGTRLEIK
notes: T4 Vk with S50 and Y52 incorporated; IgG format captured by anti-hFc in SPR; also called T4M Ab
binds: [1] | [2]

B2: CS19ME3-23 (antibody, human IgG1, V domains shown)
VH: EVQLLESGGGLVQPGGSLRLSCAASGFTFSSYAMHWVRQAPGKGLEWVAVISYDGSNKYYADSVKGRFTISRDNSKNTLYLQMNSLRAEDTAVYYCATLEGGGRYYDFWSADYWGQGTLVTVSS
VL: QSALTQPRSVSGSPGQSVTISCTGTSSDVGGYNFVSWYQQHPGKAPKLLIYAVSKRPSGVPDRFSGSKSGNTASLTISGLQAEDEADYYCSSYSSESTRVVFGGGTKLTVL
notes: tested as human IgG1 (hIgG1); also called CS19ME3-23 Ab
binds: [3] | [4] | [5]

B3: CS19ME3-30-N (antibody, human IgG1, V domains shown)
VH: B2 VH with E1Q, L5V, L11V, G16R
VL: B2 VL with K55N
notes: tested as human IgG1 (hIgG1); also called CS19ME3-30-N Ab
not listed: [1] | [2]
binds: all other assays above
